Drawing on publication PMC9927553, this text covers binding for three sequences.

For data set [1], the target named is T1, LexA (E. coli) (Escherichia coli MG1655) (UniProt P0A7C2).
T1 sequence: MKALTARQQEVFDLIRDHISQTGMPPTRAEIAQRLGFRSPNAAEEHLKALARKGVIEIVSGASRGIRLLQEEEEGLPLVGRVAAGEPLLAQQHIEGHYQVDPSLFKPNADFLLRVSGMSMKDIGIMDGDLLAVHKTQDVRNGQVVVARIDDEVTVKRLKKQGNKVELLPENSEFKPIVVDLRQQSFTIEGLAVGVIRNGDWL
As to the kind of experiment: EMSA. As to conditions: EMSA: 40 ng DNA probe, 0-600 ng LexA, binding buffer E (composition not stated; Thermo E33075 EMSA kit), 10 uL, 20 min on ice; 6% native Tris-glycine PAGE …. For orientation: Mobility shift assays separate free from complexed probe on a gel.

The target of data set [2] is T2, LexA (Salmonella) (Salmonella enterica serotype Agona strain 47SA97) (UniProt B5F1Q6).
T2 sequence: T1 sequence with I56L, E74D, N108S, K175T, Q183E, D200E
The experiment in a line: EMSA. The settings on record: EMSA: 40 ng DNA probe, 0-600 ng LexA, binding buffer E (composition not stated; Thermo E33075 EMSA kit), 10 uL, 20 min on ice; 6% native Tris-glycine PAGE ….

Positions count from the first letter of the chain named.

With “AGTTGTTCCGCAGTAGCCATTATTCAATCTCCATAAGACGGGGCAACTTTACCAATTTTATACAATAAAGTCTGTGTAGTATGACAGGGTTTAAGCACTTAATCCCCTCTAGAATTTTGTACACTCACCACCCCTACATGATTATAAATAGTCGTTCTAGATACACCATATCGCCTAGCAACA (double strand) [PsgiAT probe]”, the binding result in data set [1] and in data set [2] was “no binding” each time.
With “ACACACCTGATTTATTCACTGATTAACTTTGTCATCAATCATAAATACCATGACTTTTTGATAATGCAACGCCAAATAAGTTGTTTTTTTACAGTATCATTTTATGGTGCTATGAAGATTTGCATTTCTGAACGATAATCTATAATCGGTTACATATTAATCAGGAGGCGT (double strand) [PsgaDC* probe]”, the binding entry in data set [1] and in data set [2] was “no binding” throughout.
Regarding “ACACACCTGATTTATTCACTGATTAACTTTGTCATCAATCATAAATACCATGACTTTTTGATAATGCAACGCCAAATACTGTGTTTTTTTACAGTATCATTTTATGGTGCTATGAAGATTTGCATTTCTGAACGATAATCTATAATCGGTTACATATTAATCAGGAGGCGT (double strand) [PsgaDC probe]”, the binding entry in data set [1] and in data set [2] was “binds” throughout.
